Results: patent US9657062B2, “Ghrelin analogues” (Zealand Pharma A/S, priority 2012, dated 2017)
*1 amine or outer side, *2 acyl side, *3 side chain or, on linkers, in order; H or OH if unused. [ ]: non-standard residue; d: D form. The star is where a group is joined. Achc(cis-1,4) = O=C([C@H]1CC[C@@H](N[*:1])CC1)[*:2]; Octanoyl = CCCCCCCC(=O)*; Octyl = CCCCCCCC*

target: human growth hormone secretagogue receptor type 1a (human, UniProt Q92847 1-366); assay: cell-based or functional assay
Sequence (Q92847 whole entry): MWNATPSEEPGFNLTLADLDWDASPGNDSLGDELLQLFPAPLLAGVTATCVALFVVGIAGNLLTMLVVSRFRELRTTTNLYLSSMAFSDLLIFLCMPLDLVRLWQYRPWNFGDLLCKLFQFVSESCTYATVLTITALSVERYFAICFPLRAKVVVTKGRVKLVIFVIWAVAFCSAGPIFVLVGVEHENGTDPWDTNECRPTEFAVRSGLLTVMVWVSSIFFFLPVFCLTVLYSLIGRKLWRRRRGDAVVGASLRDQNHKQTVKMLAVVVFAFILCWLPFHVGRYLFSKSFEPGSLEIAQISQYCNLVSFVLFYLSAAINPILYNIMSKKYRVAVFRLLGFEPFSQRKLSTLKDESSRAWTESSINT

EC50 (nM); Ca2+ induction in HEK293 cells stably expressing the human ghrelin receptor [nM]	Binder
0.467	H-PSS(Octyl)FLSPEHSRVSSR-NH2 (SMILES CCCCCCCCOC[C@H](NC(=O)[C@H](CO)NC(=O)[C@@H]1CCCN1)C(=O)N[C@@H](Cc1ccccc1)C(=O)N[C@@H](CC(C)C)C(=O)N[C@@H](CO)C(=O)N1CCC[C@H]1C(=O)N[C@@H](CCC(=O)O)C(=O)N[C@@H](Cc1c[nH]cn1)C(=O)N[C@@H](CO)C(=O)N[C@@H](CCCNC(=N)N)C(=O)N[C@H](C(=O)N[C@@H](CO)C(=O)N[C@@H](CO)C(=O)N[C@@H](CCCNC(=N)N)C(N)=O)C(C)C) [H-PS-S(O-octyl)-FLSPEHSRVSSR-NH2]
0.271	H-[Achc(cis-1,4)]S(Octyl)FLSPEHQRVQQRKESKKPPAKLQPR-NH2 (SMILES CCCCCCCCOC[C@H](NC(=O)[C@H]1CC[C@@H](N)CC1)C(=O)N[C@@H](Cc1ccccc1)C(=O)N[C@@H](CC(C)C)C(=O)N[C@@H](CO)C(=O)N1CCC[C@H]1C(=O)N[C@@H](CCC(=O)O)C(=O)N[C@@H](Cc1c[nH]cn1)C(=O)N[C@@H](CCC(N)=O)C(=O)N[C@@H](CCCNC(=N)N)C(=O)N[C@H](C(=O)N[C@@H](CCC(N)=O)C(=O)N[C@@H](CCC(N)=O)C(=O)N[C@@H](CCCNC(=N)N)C(=O)N[C@@H](CCCCN)C(=O)N[C@@H](CCC(=O)O)C(=O)N[C@@H](CO)C(=O)N[C@@H](CCCCN)C(=O)N[C@@H](CCCCN)C(=O)N1CCC[C@H]1C(=O)N1CCC[C@H]1C(=O)N[C@@H](C)C(=O)N[C@@H](CCCCN)C(=O)N[C@@H](CC(C)C)C(=O)N[C@@H](CCC(N)=O)C(=O)N1CCC[C@H]1C(=O)N[C@@H](CCCNC(=N)N)C(N)=O)C(C)C) [H-[cACC]-S(O-octyl)-FLSPEHQRVQQRKESKKPPAKLQPR-NH2]
0.231	H-PSS(Octyl)FLSPEHQRVQQRKESKKPPA-NH2 (SMILES CCCCCCCCOC[C@H](NC(=O)[C@H](CO)NC(=O)[C@@H]1CCCN1)C(=O)N[C@@H](Cc1ccccc1)C(=O)N[C@@H](CC(C)C)C(=O)N[C@@H](CO)C(=O)N1CCC[C@H]1C(=O)N[C@@H](CCC(=O)O)C(=O)N[C@@H](Cc1c[nH]cn1)C(=O)N[C@@H](CCC(N)=O)C(=O)N[C@@H](CCCNC(=N)N)C(=O)N[C@H](C(=O)N[C@@H](CCC(N)=O)C(=O)N[C@@H](CCC(N)=O)C(=O)N[C@@H](CCCNC(=N)N)C(=O)N[C@@H](CCCCN)C(=O)N[C@@H](CCC(=O)O)C(=O)N[C@@H](CO)C(=O)N[C@@H](CCCCN)C(=O)N[C@@H](CCCCN)C(=O)N1CCC[C@H]1C(=O)N1CCC[C@H]1C(=O)N[C@@H](C)C(N)=O)C(C)C) [H-PS-S(O-octyl)-FLSPEHQRVQQRKESKKPPA-NH2]
0.33	H-PSS(Octyl)FLSPEHQRVQRKESKKPPAKLQPR-NH2 (SMILES CCCCCCCCOC[C@H](NC(=O)[C@H](CO)NC(=O)[C@@H]1CCCN1)C(=O)N[C@@H](Cc1ccccc1)C(=O)N[C@@H](CC(C)C)C(=O)N[C@@H](CO)C(=O)N1CCC[C@H]1C(=O)N[C@@H](CCC(=O)O)C(=O)N[C@@H](Cc1c[nH]cn1)C(=O)N[C@@H](CCC(N)=O)C(=O)N[C@@H](CCCNC(=N)N)C(=O)N[C@H](C(=O)N[C@@H](CCC(N)=O)C(=O)N[C@@H](CCCNC(=N)N)C(=O)N[C@@H](CCCCN)C(=O)N[C@@H](CCC(=O)O)C(=O)N[C@@H](CO)C(=O)N[C@@H](CCCCN)C(=O)N[C@@H](CCCCN)C(=O)N1CCC[C@H]1C(=O)N1CCC[C@H]1C(=O)N[C@@H](C)C(=O)N[C@@H](CCCCN)C(=O)N[C@@H](CC(C)C)C(=O)N[C@@H](CCC(N)=O)C(=O)N1CCC[C@H]1C(=O)N[C@@H](CCCNC(=N)N)C(N)=O)C(C)C) [H-PS-S(O-octyl)-FLSPEHQRVQRKESKKPPAKLQPR-NH2]
0.714	H-FSS(Octanoyl)FLSPEHQRVQQRKESKKPPAKLQPR-OH (SMILES CCCCCCCC(=O)OC[C@H](NC(=O)[C@H](CO)NC(=O)[C@@H](N)Cc1ccccc1)C(=O)N[C@@H](Cc1ccccc1)C(=O)N[C@@H](CC(C)C)C(=O)N[C@@H](CO)C(=O)N1CCC[C@H]1C(=O)N[C@@H](CCC(=O)O)C(=O)N[C@@H](Cc1c[nH]cn1)C(=O)N[C@@H](CCC(N)=O)C(=O)N[C@@H](CCCNC(=N)N)C(=O)N[C@H](C(=O)N[C@@H](CCC(N)=O)C(=O)N[C@@H](CCC(N)=O)C(=O)N[C@@H](CCCNC(=N)N)C(=O)N[C@@H](CCCCN)C(=O)N[C@@H](CCC(=O)O)C(=O)N[C@@H](CO)C(=O)N[C@@H](CCCCN)C(=O)N[C@@H](CCCCN)C(=O)N1CCC[C@H]1C(=O)N1CCC[C@H]1C(=O)N[C@@H](C)C(=O)N[C@@H](CCCCN)C(=O)N[C@@H](CC(C)C)C(=O)N[C@@H](CCC(N)=O)C(=O)N1CCC[C@H]1C(=O)N[C@@H](CCCNC(=N)N)C(=O)O)C(C)C) [H-FS-S(O-octanoyl)-FLSPEHQRVQQRKESKKPPAKLQPR-OH]
0.221	H-PSS(Octyl)FLSPEHQRVQQRKES-NH2 (SMILES CCCCCCCCOC[C@H](NC(=O)[C@H](CO)NC(=O)[C@@H]1CCCN1)C(=O)N[C@@H](Cc1ccccc1)C(=O)N[C@@H](CC(C)C)C(=O)N[C@@H](CO)C(=O)N1CCC[C@H]1C(=O)N[C@@H](CCC(=O)O)C(=O)N[C@@H](Cc1c[nH]cn1)C(=O)N[C@@H](CCC(N)=O)C(=O)N[C@@H](CCCNC(=N)N)C(=O)N[C@H](C(=O)N[C@@H](CCC(N)=O)C(=O)N[C@@H](CCC(N)=O)C(=O)N[C@@H](CCCNC(=N)N)C(=O)N[C@@H](CCCCN)C(=O)N[C@@H](CCC(=O)O)C(=O)N[C@@H](CO)C(N)=O)C(C)C) [H-PS-S(O-octyl)-FLSPEHQRVQQRKES-NH2]
0.786	XSSFLSPEHQRVQQRKESKKPPAKLQPR (DPro at position 1; Ser(O-octanoyl) at position 3; C-terminal -OH) [H-[DPro]-S-S(O-octanoyl)-FLSPEHQRVQQRKESKKPPAKLQPR-OH]
0.594	H-PSS(Octanoyl)FLSPYHQRVQYRKESKKPPAYLQPR-NH2 (SMILES CCCCCCCC(=O)OC[C@H](NC(=O)[C@H](CO)NC(=O)[C@@H]1CCCN1)C(=O)N[C@@H](Cc1ccccc1)C(=O)N[C@@H](CC(C)C)C(=O)N[C@@H](CO)C(=O)N1CCC[C@H]1C(=O)N[C@@H](Cc1ccc(O)cc1)C(=O)N[C@@H](Cc1c[nH]cn1)C(=O)N[C@@H](CCC(N)=O)C(=O)N[C@@H](CCCNC(=N)N)C(=O)N[C@H](C(=O)N[C@@H](CCC(N)=O)C(=O)N[C@@H](Cc1ccc(O)cc1)C(=O)N[C@@H](CCCNC(=N)N)C(=O)N[C@@H](CCCCN)C(=O)N[C@@H](CCC(=O)O)C(=O)N[C@@H](CO)C(=O)N[C@@H](CCCCN)C(=O)N[C@@H](CCCCN)C(=O)N1CCC[C@H]1C(=O)N1CCC[C@H]1C(=O)N[C@@H](C)C(=O)N[C@@H](Cc1ccc(O)cc1)C(=O)N[C@@H](CC(C)C)C(=O)N[C@@H](CCC(N)=O)C(=O)N1CCC[C@H]1C(=O)N[C@@H](CCCNC(=N)N)C(N)=O)C(C)C) [H-PS-S(octanoyl)-FLSPYHQRVQYRKESKKPPAYLQPR-NH2]
0.23	H-PS[NH‑CH(n-C10H21)‑C(O)]FLSPEHQRVQRKESKKPPAKLQPR-NH2 [H-PS-[NH-CH(n-C10H21)-C(O)]-FLSPEHQRVQRKESKKPPAKLQPR-NH2]
0.252	H-PSS(Octanoyl)FLSPEHQRVQQRKESKKPPAYLQPR-NH2 (SMILES CCCCCCCC(=O)OC[C@H](NC(=O)[C@H](CO)NC(=O)[C@@H]1CCCN1)C(=O)N[C@@H](Cc1ccccc1)C(=O)N[C@@H](CC(C)C)C(=O)N[C@@H](CO)C(=O)N1CCC[C@H]1C(=O)N[C@@H](CCC(=O)O)C(=O)N[C@@H](Cc1c[nH]cn1)C(=O)N[C@@H](CCC(N)=O)C(=O)N[C@@H](CCCNC(=N)N)C(=O)N[C@H](C(=O)N[C@@H](CCC(N)=O)C(=O)N[C@@H](CCC(N)=O)C(=O)N[C@@H](CCCNC(=N)N)C(=O)N[C@@H](CCCCN)C(=O)N[C@@H](CCC(=O)O)C(=O)N[C@@H](CO)C(=O)N[C@@H](CCCCN)C(=O)N[C@@H](CCCCN)C(=O)N1CCC[C@H]1C(=O)N1CCC[C@H]1C(=O)N[C@@H](C)C(=O)N[C@@H](Cc1ccc(O)cc1)C(=O)N[C@@H](CC(C)C)C(=O)N[C@@H](CCC(N)=O)C(=O)N1CCC[C@H]1C(=O)N[C@@H](CCCNC(=N)N)C(N)=O)C(C)C) [H-PS-S(octanoyl)-FLSPEHQRVQQRKESKKPPAYLQPR-NH2]
0.198	H-PSS(Octanoyl)FLSPEHQRVQYRKESKKPPAKLQPR-NH2 (SMILES CCCCCCCC(=O)OC[C@H](NC(=O)[C@H](CO)NC(=O)[C@@H]1CCCN1)C(=O)N[C@@H](Cc1ccccc1)C(=O)N[C@@H](CC(C)C)C(=O)N[C@@H](CO)C(=O)N1CCC[C@H]1C(=O)N[C@@H](CCC(=O)O)C(=O)N[C@@H](Cc1c[nH]cn1)C(=O)N[C@@H](CCC(N)=O)C(=O)N[C@@H](CCCNC(=N)N)C(=O)N[C@H](C(=O)N[C@@H](CCC(N)=O)C(=O)N[C@@H](Cc1ccc(O)cc1)C(=O)N[C@@H](CCCNC(=N)N)C(=O)N[C@@H](CCCCN)C(=O)N[C@@H](CCC(=O)O)C(=O)N[C@@H](CO)C(=O)N[C@@H](CCCCN)C(=O)N[C@@H](CCCCN)C(=O)N1CCC[C@H]1C(=O)N1CCC[C@H]1C(=O)N[C@@H](C)C(=O)N[C@@H](CCCCN)C(=O)N[C@@H](CC(C)C)C(=O)N[C@@H](CCC(N)=O)C(=O)N1CCC[C@H]1C(=O)N[C@@H](CCCNC(=N)N)C(N)=O)C(C)C) [H-PS-S(octanoyl)-FLSPEHQRVQYRKESKKPPAKLQPR-NH2]
0.44	H-PSS(Octyl)FLSPEHSR-NH2 (SMILES CCCCCCCCOC[C@H](NC(=O)[C@H](CO)NC(=O)[C@@H]1CCCN1)C(=O)N[C@@H](Cc1ccccc1)C(=O)N[C@@H](CC(C)C)C(=O)N[C@@H](CO)C(=O)N1CCC[C@H]1C(=O)N[C@@H](CCC(=O)O)C(=O)N[C@@H](Cc1c[nH]cn1)C(=O)N[C@@H](CO)C(=O)N[C@@H](CCCNC(=N)N)C(N)=O) [H-PS-S(O-octyl)-FLSPEHSR-NH2]
0.396	H-PSS(Octyl)FLSPEHQRVQQRKESKKPPAKLQPR-NH2 [H-PS-S(O-octyl)-FLSPEHQRVQQRKESKKPPAKLQPR-NH2]
0.333	H-PS[NH‑CH(n-C10H21)‑C(O)]FLSPEHQRVQQRKESKKPPAKLQPR-NH2 [H-PS-[NH-CH(n-C10H21)-C(O)]-FLSPEHQRVQQRKESKKPPAKLQPR-NH2]
